The source of these data is US20210187118A1.

The target in experiment [1] is TF-glycosylated PDTR MUC1 tandem repeat peptide …-T(TF)-…. The experiment is described as follows: antigen ELISA on TF-glycosylated PDTR MUC1 peptide, protein A purified antibodies. A general note: ELISA stands for enzyme-linked immunosorbent assay.
Experiment [2] deals with Tn-glycosylated PDTR MUC1 tandem repeat peptide …-T(Tn)-…. The experiment is described as follows: antigen ELISA on Tn-glycosylated PDTR MUC1 peptide, protein A purified antibodies.
Tn-glycosylated PDTR MUC1 tandem repeat peptide …-T(Tn)-…, sequence (peptide, as listed by the source limits assumed): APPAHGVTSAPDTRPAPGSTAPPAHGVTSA

TF-glycosylated PDTR MUC1 tandem repeat peptide …-T(TF)-…, sequence (peptide, as listed by the source limits assumed): as above

In general, EC50 (read off the curve) refers to the concentration that produces a half-maximal response. Consider PankoMab N54W (antibody), for which the EC50 (read off the curve) in experiment [1] is 8 ng/mL; in experiment [2] it was 10 ng/mL.
